In US20190175515A1, “CHOLESTERYL ESTER VESICLES LOADING PEPTIDES, PROTEINS AND NUCLEIC ACIDS INTO CHYLOMICRONS AND BODY CELLS” (priority 2016, published 2019):
Residues, ends and D or L forms follow the SMILES beside them. *: point of attachment. Cbz = O=C(OCc1ccccc1)*

Key:
MCF-7 cells [1] = assay: Pilot study of MG-132 on MCF-7 cells exposed to 1117 insulin-cholestosomes; format: cell-based, human
Procedure: A pilot study was performed whereby […] to MCF -7 cells that were also exposed to 1117 insulin-cholestosomes.

[2] = rats, chitosan nanoparticles; cited from earlier work
MCF-7 cells [3] = assay: FITC cholestosome (myristate/palmitate) uptake in MCF-7 cells, fluorescent imaging; format: cell-based, human
Procedure: In this experiment, 22 ug of FITC formulation was placed on MCF-7 cells, Fluorescent imaging was performed over time, with images taken at 2, 4, 8 and 24 hours.

[4] = format: in vivo; details: rats
Procedure: These experiments were conducted to evaluate the comparative plasma and tissue to plasma ratios of insulin between a cholesterol-encapsulated insulin formulation (cholestosome-insulin) administered by oral gavage and by subcutaneous injection, both compared with the same insulin administered subcutaneously (s.c.) In healthy female Wistar rats.
This study was designed for comparison of insulin bioavailability from the formulations administered, which is defined by the Area under the curve (AUC) calculated as the ratio of Oral to […] over 24 hours following the dosing of the formulation,
Sixteen healthy female Wistar rats ranging from 246.5 to 292.8 g in body weight were distributed into three study groups. Two 6-rat cohorts were dosed with cholestosome insulin oral and SC injection and the remaining 4 rats were given subcutaneous regular insulin as controls. Each rat was dosed with 1.0 ml/animal of a solution identified by Sponsor with cage number and rat number only. Two groups of female Wistar rats were fasted, ranging in duration from 3 hr prior—to 1 hr post-dosing. Rats had free access to water at all times. […] Rats were monitored daily for mortality and morbidity, including signs of hypoglycemia. […]
Results. […] All AUG values were corrected for actual dose given (subtracting residual returned) and expressed as AUG to a dose of 0.25 units, which was approximately 1 unit/kg of body weight. […]

[5] = Temperature stability of insulin; format: physicochemical
Procedure: Once there is the addition of the aqueous molecule or construct, the mixture is sonicated until there is a cloudy solution formed, thereby minimizing waste from un-dissolved esters, with sonication providing energy for unilamellar vesicle formation. The aqueous component is also maintained at the target temperature prior to its addition, and as stated previously for most peptides, proteins and genes, the highest temperature that can be tolerated is only about 45-50° C.
On the basis of these finding and considering the stability of the proteins and peptides being formulated, including insulin by way of example, the operating temperature of encapsulation procedures was kept,between 40 and 55 degrees centigrade. […] By way of example, optimal insulin preparation was at 37-55 degrees centigrade.

[6] = Insulin solubility and integrity versus pH (HPLC); format: physicochemical
Procedure: Many preparations of cholestosome insulin have been made. […] Accordingly, the solubility limits of Insulin were empirically tested at pH 3.5, 6, 7 and 8. Data on the […] of each formulation are plotted by pH of the insulin solution are plotted at two different ionic strengths of PBS buffer in FIG. 9.
The maximum concentration at each tested pH was applied to the following: Stock solutions for each pH and ionic strength combination are prepared. The empirically determined maximum concentration of Human Recombinant Insulin (SAFC Biosciences and. ProSpec) was added to the stock solution. These stock solutions were then readjusted to the desired pH using either 1M HCl or 1M NaOH as needed 5.0 ml of stock solution was heated to 55° C. and used as the aqueous component in preparations.

melanoma = details: patients with melanoma; cited from earlier work
[7] = Eligen proteinaceous coating and SNAC; cited from earlier work

Procedure for Caco-2 cells: Caco-2 intestinal epithelial cells were gown in Dulbecco's Modified Eagle's Media (DMEM) supplemented with 20% fetal bovine serum (heat inactivated), 1 nM sodium pyruvate, 100 U/ml penicillin, 100 μg/ml streptomycin, 292 μg/ml L-Glutamine and 1× MEM non-essential amino acids (Invitrogen, #11140). Cells were cultured in 75 cm^2 flasks and incubated in a 37° C. and 5% CO2 environment until 80-90% confluent. The Biocoat HTS Caco-2 assay system (Becton Dickson, #0354802) was used for transport studies. Cells were seeded at a density of 3×10^5 cells/well and differentiated into enterocyte-like cells using, the manufacturer's protocol. This system used a special fibrillar collagen insert and a serum free differentiation medium enhanced with butyric acid, hormones, growth factors and metabolites to establish a differentiated monolayer in 3 days instead of the 21 days that is normally required for this process. This involved incubation of the cells with a DMEM based media containing 10% FBS for 48 hours at 37° C., 5% CO2 after seeding to establish a growth phase. The media was then replaced by the defined differentiation media and incubated for another 48 hours. At this point the Caco-2 cells are ready for further studies.
The differentiated Caco-2 cells were used for the production of Chylomicrons using the method of Luchoomun and Hussain-1999 (21). This method uses supplementation with oleic acid (OA) and taurocholate (TC) at a 1.6:1.0 mM ratio to achieve chylomicrons production. The OA:TC solution was made up in the DMEM based cell growth media used in the BIOCOAT differentiation protocol by adding OA to a 10 mM TC solution and incubated at 37° C. until clear. This was then 0.2 u filtered and used immediately for the transport studies. Treatments plus OA:TC were added in a 450 ul volume to the apical side of the well and incubated for 24 hours for transport studies and chylomicrons production. PBS plus lingind glucose was added in a 1ml volume to the basolateral side. […]

Compound: CC(C)C[C@@H](C=O)NC(=O)[C@H](CC(C)C)NC(=O)[C@H](CC(C)C)NC(=O)OCc1ccccc1 [MG-132] (Cbz-Leu-Leu-Leu-aldehyde)
- effect on exocytosis of insulin-cholestosomes (MCF-7 cells [1]): caused the likely exocytosis of more intact insulin-cholestosomes

Compound: Aspart Insulin
- oral bioavailability of insulin [2]: 17%

Compound: FITC-insulin: FITC labeled regular insulin purchased commercially, unencapsulated
- FITC signal found in the Caco-2 cells (Caco-2 cells; Caco-2): about 1%
- FITC signal remaining on the apical side (Caco-2 cells; human, Caco-2, 24 h): ~100%

Compound: Fluorescein Isothiocyanate [FITC]
- uptake / fluorescence, encapsulated FITC and FITC alone (MCF-7 cells [3]): uptake of FITC itself into MCF-7 cells

Compound: Insulin: Human Recombinant Insulin made in bacteria
- signs of drug toxicity or severe hypoglycemia [4]: No signs of drug toxicity or severe hypoglycemia
- tolerability ([4]; oral and SC (cholestosome), SC (regular insulin)): well tolerated
- oral bioavailability of insulin [2]: 17-20%
- stability across operating temperature range ([5]; between 40 and 55 degrees centigrade): stable
- temperature up to which insulin remains stable ([5]; under certain conditions): up to 55 °C
- Insulin solubility ([6]; pH 8.0): high
- integrity of insulin by HPLC analysis ([6]; pH (8) environment): breaks down the insulin A/B Dimer

Compound: acid protected insulin: insulin protected from acid but not cholestosome encapsulated, Caco-2 control
- insulin passing the apical Caco-2 barrier (Caco-2 cells; Caco-2): < 5%

Compound: ipilimumab: CTLA-4 antibody
- overall tumor response (OR) rate (melanoma): 11%

Compound: semaglutide: a GLP-1 agonist under development by Novo Nordisk
- oral bioavailability [7]: 2.5%
